# Reference: PMC3020801, “A new lysozyme from the eastern oyster, Crassostrea virginica, and a possible evolutionary pathway for i-type lysozymes in bivalves from host defense to digestion” (BMC Evolutionary Biology, 2010)
# Biological target: the molecule itself
# Test: SDS-PAGE under non-reducing conditions; 12.5% acrylamide/bis gel, reduced and non-reduced conditions, Coomassie blue R-250; a second band of >100 kDa only under non-reduced conditions
protein,measurement,value
"cv-lysozyme 3 (enzyme, Crassostrea virginica, cv-lysozyme 3, Crassostrea virginica, tryptic peptide 1-35 of the purified protein; numbers count on: the mature protein; cv-lysozyme 3, tryptic peptide 37-69; cv-lysozyme 3, tryptic peptide 70-88; cv-lysozyme 3, tryptic peptide 89-103; cv-lysozyme 3, tryptic peptide 104-114; cv-lysozyme 3, tryptic peptide 115-122; cv-lysozyme 3, tryptic peptide 123-138; cv-lysozyme 3, tryptic peptide 139-148; …) SDAPCTNSGGVCQDDHLACHNGHYQSGLCTGGAHRRCCLTSASHTGSFSTGIVSQQCLQCICNVESGCKAIGCHFDVNSDSCGYFQIKEGYWHDCGSPGSSWRSCANDLACASKCVQAYMSRYIGFSGCSHSCESYARIHNGGPAGCKHTNTLGYWSHVHAQGCSHNS",binding result,binds
